Results taken from article PMC8053102.

Biological target: T1, PcnR (plasmid copy number repressor, ProQ/FinO family) (Escherichia coli IncI2 plasmid pHNSHP45, UniProt Q9F577 1-198)
T1 sequence: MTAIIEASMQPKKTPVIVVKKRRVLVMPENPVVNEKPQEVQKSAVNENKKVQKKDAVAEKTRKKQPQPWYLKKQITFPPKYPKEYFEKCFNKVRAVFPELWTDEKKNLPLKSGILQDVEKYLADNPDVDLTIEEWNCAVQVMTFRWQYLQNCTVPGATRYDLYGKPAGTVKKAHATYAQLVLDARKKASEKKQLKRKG
Assay: EMSA

CUGAAGUGGAGUUUAAUUCCAUGAGAAGGAAAUAUCAACUCUUACAG (structured_RNA) [first stem-loop (SL) of repR mRNA, 47 nt]: binds.
